# Reference: paper PMC9482650, “Quantitative fragmentomics allow affinity mapping of interactomes” (Nature Communications, 2022)
# T1: SNTG2, Q9NY99
# T1 sequence (Q9NY99 68-166, limits assumed, looked up): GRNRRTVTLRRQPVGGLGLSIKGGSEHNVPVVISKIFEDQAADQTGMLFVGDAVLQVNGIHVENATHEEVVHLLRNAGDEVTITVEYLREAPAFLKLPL
# T2: PDZRN3_1, Q9UPQ7
# T2 sequence (Q9UPQ7 244-349, limits assumed, looked up): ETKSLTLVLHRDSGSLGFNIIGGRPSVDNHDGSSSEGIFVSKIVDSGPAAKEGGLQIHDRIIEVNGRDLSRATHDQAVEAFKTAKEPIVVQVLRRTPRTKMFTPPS
# T3: TX1BP3, O14907
# T3 sequence (O14907 10-122, limits assumed, looked up): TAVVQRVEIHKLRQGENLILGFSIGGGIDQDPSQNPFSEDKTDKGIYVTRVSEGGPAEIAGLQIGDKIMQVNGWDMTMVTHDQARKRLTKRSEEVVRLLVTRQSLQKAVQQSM
# T4: SNTA1, Q13424
# T4 sequence (Q13424 82-180, limits assumed, looked up): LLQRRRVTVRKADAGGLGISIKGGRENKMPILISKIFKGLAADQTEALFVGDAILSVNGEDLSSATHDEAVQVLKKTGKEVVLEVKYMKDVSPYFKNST
# T5: LNX2_2, Q8N448
# T5 sequence (Q8N448 334-432, limits assumed, looked up): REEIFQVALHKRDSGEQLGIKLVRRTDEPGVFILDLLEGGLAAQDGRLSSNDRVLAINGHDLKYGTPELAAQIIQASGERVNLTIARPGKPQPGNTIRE
# T6: RHPN1, Q8TCX5
# T6 sequence (Q8TCX5 508-602, limits assumed, looked up): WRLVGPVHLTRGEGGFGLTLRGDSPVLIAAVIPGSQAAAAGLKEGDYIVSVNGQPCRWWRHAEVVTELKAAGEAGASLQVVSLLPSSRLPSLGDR
# T7: DLG3_1, Q92796
# T7 sequence (Q92796 125-227, limits assumed, looked up): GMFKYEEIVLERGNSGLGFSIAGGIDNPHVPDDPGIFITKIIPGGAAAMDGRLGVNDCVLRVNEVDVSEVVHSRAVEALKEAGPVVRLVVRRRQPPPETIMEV
# T8: LIN7B, Q9HAP6
# T8 sequence (Q9HAP6 88-185, limits assumed, looked up): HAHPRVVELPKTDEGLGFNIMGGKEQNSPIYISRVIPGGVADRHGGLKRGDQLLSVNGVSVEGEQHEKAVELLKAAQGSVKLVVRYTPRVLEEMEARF
# T9: PCLO, Q9Y6V0
# T9 sequence (Q9Y6V0 4491-4600, limits assumed, looked up): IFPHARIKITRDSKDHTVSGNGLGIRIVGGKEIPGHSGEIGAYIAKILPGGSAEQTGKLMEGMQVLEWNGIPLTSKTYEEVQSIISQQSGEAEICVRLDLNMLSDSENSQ
# T10: MPP2, Q14168
# T10 sequence (Q14168 180-250, limits assumed, looked up): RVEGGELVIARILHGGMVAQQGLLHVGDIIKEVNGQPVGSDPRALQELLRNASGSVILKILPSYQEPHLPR
# T11: FRMPD1, Q5SYB0
# T11 sequence (Q5SYB0 52-145, limits assumed, looked up): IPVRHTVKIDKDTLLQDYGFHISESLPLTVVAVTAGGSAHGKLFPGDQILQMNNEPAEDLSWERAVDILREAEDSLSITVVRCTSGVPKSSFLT
# B1: GNG4, P50150 (peptide)
# chain: REKKFFCTIL
# B2: TNRC6A, Q8NDV7 (peptide)
# chain: DHLGGGGESM
# B3: IGF1R, P08069 (peptide)
# chain: ALPLPQSSTC
# B4: PLCB1, Q9NQ66 (peptide)
# chain: IPGKEFDTPL
# Target: HTRA2, O43464
# Sequence (O43464 355-458): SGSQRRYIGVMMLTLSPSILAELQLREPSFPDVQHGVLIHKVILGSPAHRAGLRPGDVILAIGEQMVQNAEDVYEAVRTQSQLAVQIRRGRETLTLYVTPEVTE
# Assay: holdup assay
# Set-up: key: below the threshold = too weak to quantify, mostly under pKd 3.1 to 4
# Settings: plain residues with an end cap or a label only (N-terminal biotin on a linker: ado-ado)
row,Binder,pKd
1,B1,4.49
2,B2,below the threshold
3,B3,below the threshold
4,B4,below the threshold

# Target: LIMK2, P53671
# Sequence (P53671 143-248): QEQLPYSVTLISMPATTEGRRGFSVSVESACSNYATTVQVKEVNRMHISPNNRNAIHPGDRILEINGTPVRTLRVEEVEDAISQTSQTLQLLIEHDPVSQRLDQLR
# Assay: holdup assay
# Set-up: key: below the threshold = too weak to quantify, mostly under pKd 3.1 to 4
# Settings: plain residues with an end cap or a label only (N-terminal biotin on a linker: ado-ado)
row,Binder,pKd
1,B1,below the threshold
2,B2,below the threshold
3,B3,below the threshold
4,B4,below the threshold

# Target: PDLIM1, O00151
# Sequence (O00151 1-87): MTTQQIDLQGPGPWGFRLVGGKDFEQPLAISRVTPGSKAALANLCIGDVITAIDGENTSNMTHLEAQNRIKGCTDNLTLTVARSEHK
# Assay: holdup assay
# Set-up: key: below the threshold = too weak to quantify, mostly under pKd 3.1 to 4
# Settings: plain residues with an end cap or a label only (N-terminal biotin on a linker: ado-ado)
row,Binder,pKd
1,B1,below the threshold
2,B2,below the threshold
3,B3,below the threshold
4,B4,below the threshold

# Target: T1, SNTG2, Q9NY99
# Assay: holdup assay
# Set-up: key: below the threshold = too weak to quantify, mostly under pKd 3.1 to 4
# Settings: plain residues with an end cap or a label only (N-terminal biotin on a linker: ado-ado)
row,Binder,pKd
1,B1,4.35
2,B2,below the threshold
3,B3,below the threshold
4,B4,below the threshold

# Target: T2, PDZRN3_1, Q9UPQ7
# Assay: holdup assay
# Set-up: key: below the threshold = too weak to quantify, mostly under pKd 3.1 to 4
# Settings: plain residues with an end cap or a label only (N-terminal biotin on a linker: ado-ado)
row,Binder,pKd
1,B1,4.14
2,B2,below the threshold
3,B3,below the threshold
4,B4,4.33

# Target: FRMPD2_1, Q68DX3
# Sequence (Q68DX3 770-861): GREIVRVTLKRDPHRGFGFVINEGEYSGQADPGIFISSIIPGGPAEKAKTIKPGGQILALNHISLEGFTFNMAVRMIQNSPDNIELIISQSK
# Assay: holdup assay
# Set-up: key: below the threshold = too weak to quantify, mostly under pKd 3.1 to 4
# Settings: plain residues with an end cap or a label only (N-terminal biotin on a linker: ado-ado)
row,Binder,pKd
1,B1,3.88
2,B2,below the threshold
3,B3,below the threshold
4,B4,below the threshold

# Target: SNX27, Q96L92
# Assay: holdup assay
# Set-up: key: below the threshold = too weak to quantify, mostly under pKd 3.1 to 4
# Settings: plain residues with an end cap or a label only (N-terminal biotin on a linker: ado-ado)
row,Binder,pKd
1,B1,5.13
2,B2,below the threshold
3,B3,below the threshold
4,B4,5.17

# Target: IL16_3, Q14005
# Sequence (Q14005 1107-1207): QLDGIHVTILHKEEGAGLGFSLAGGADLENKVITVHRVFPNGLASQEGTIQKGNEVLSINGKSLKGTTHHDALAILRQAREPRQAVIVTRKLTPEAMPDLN
# Assay: holdup assay
# Set-up: key: below the threshold = too weak to quantify, mostly under pKd 3.1 to 4
# Settings: plain residues with an end cap or a label only (N-terminal biotin on a linker: ado-ado)
row,Binder,pKd
1,B1,below the threshold
2,B2,below the threshold
3,B3,below the threshold
4,B4,below the threshold

# Target: T3, TX1BP3, O14907
# Assay: holdup assay
# Set-up: key: below the threshold = too weak to quantify, mostly under pKd 3.1 to 4
# Settings: plain residues with an end cap or a label only (N-terminal biotin on a linker: ado-ado)
row,Binder,pKd
1,B1,5.29
2,B2,below the threshold
3,B3,below the threshold
4,B4,3.87

# Target: PARD3_3, Q8TEW0
# Sequence (Q8TEW0 582-685): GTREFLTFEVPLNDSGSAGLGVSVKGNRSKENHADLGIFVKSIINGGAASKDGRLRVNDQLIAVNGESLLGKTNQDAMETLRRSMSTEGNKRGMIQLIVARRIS
# Assay: holdup assay
# Set-up: key: below the threshold = too weak to quantify, mostly under pKd 3.1 to 4
# Settings: plain residues with an end cap or a label only (N-terminal biotin on a linker: ado-ado)
row,Binder,pKd
1,B1,4.27
2,B2,below the threshold
3,B3,below the threshold
4,B4,below the threshold

# Target: T4, SNTA1, Q13424
# Assay: holdup assay
# Set-up: key: below the threshold = too weak to quantify, mostly under pKd 3.1 to 4
# Settings: plain residues with an end cap or a label only (N-terminal biotin on a linker: ado-ado)
row,Binder,pKd
1,B1,4.35
2,B2,below the threshold
3,B3,below the threshold
4,B4,3.51

# Target: T5, LNX2_2, Q8N448
# Assay: holdup assay
# Set-up: key: below the threshold = too weak to quantify, mostly under pKd 3.1 to 4
# Settings: plain residues with an end cap or a label only (N-terminal biotin on a linker: ado-ado)
row,Binder,pKd
1,B1,4.06
2,B2,below the threshold
3,B3,3.55
4,B4,below the threshold

# Target: T6, RHPN1, Q8TCX5
# Assay: holdup assay
# Set-up: key: below the threshold = too weak to quantify, mostly under pKd 3.1 to 4
# Settings: plain residues with an end cap or a label only (N-terminal biotin on a linker: ado-ado)
row,Binder,pKd
1,B1,4.48
2,B2,below the threshold
3,B3,3.58
4,B4,3.65

# Target: T7, DLG3_1, Q92796
# Assay: holdup assay
# Set-up: key: below the threshold = too weak to quantify, mostly under pKd 3.1 to 4
# Settings: plain residues with an end cap or a label only (N-terminal biotin on a linker: ado-ado)
row,Binder,pKd
1,B1,3.65
2,B2,below the threshold
3,B3,below the threshold
4,B4,below the threshold

# Target: DLG4_2, P78352
# Sequence (P78352 155-259): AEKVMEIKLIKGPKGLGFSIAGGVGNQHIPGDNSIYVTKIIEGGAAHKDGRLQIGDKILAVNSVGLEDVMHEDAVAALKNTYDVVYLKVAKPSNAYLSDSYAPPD
# Assay: holdup assay
# Set-up: key: below the threshold = too weak to quantify, mostly under pKd 3.1 to 4
# Settings: plain residues with an end cap or a label only (N-terminal biotin on a linker: ado-ado)
row,Binder,pKd
1,B1,3.95
2,B2,below the threshold
3,B3,3.76
4,B4,below the threshold

# Target: NHERF4_1, Q86UT5-2
# Sequence (Q86UT5 other isoform, or with tags, fused parts or gaps): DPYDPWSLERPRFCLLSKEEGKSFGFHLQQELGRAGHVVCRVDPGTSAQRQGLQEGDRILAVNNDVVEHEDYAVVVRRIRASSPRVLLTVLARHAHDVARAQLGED
# Assay: holdup assay
# Set-up: key: below the threshold = too weak to quantify, mostly under pKd 3.1 to 4
# Settings: plain residues with an end cap or a label only (N-terminal biotin on a linker: ado-ado)
row,Binder,pKd
1,B1,4.56
2,B2,below the threshold
3,B3,3.88
4,B4,3.56

# Target: HTRA1, Q92743
# Sequence (Q92743 360-477): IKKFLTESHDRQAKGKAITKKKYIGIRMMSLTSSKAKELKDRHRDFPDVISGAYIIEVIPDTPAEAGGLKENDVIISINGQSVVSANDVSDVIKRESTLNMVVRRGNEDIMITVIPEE
# Assay: holdup assay
# Set-up: key: below the threshold = too weak to quantify, mostly under pKd 3.1 to 4
# Settings: plain residues with an end cap or a label only (N-terminal biotin on a linker: ado-ado)
row,Binder,pKd
1,B1,5.48
2,B2,below the threshold
3,B3,3.69
4,B4,below the threshold

# Target: GRIP2_3, Q9C0E4
# Sequence (Q9C0E4 238-339): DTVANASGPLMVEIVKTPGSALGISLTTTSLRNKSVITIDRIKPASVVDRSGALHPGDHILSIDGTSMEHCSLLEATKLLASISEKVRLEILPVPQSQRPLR
# Assay: holdup assay
# Set-up: key: below the threshold = too weak to quantify, mostly under pKd 3.1 to 4
# Settings: plain residues with an end cap or a label only (N-terminal biotin on a linker: ado-ado)
row,Binder,pKd
1,B1,below the threshold
2,B2,below the threshold
3,B3,below the threshold
4,B4,below the threshold

# Target: IL16_4, Q14005
# Sequence (Q14005 1229-1329): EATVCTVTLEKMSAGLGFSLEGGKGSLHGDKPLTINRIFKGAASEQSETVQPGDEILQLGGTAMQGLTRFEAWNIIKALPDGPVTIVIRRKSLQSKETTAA
# Assay: holdup assay
# Set-up: key: below the threshold = too weak to quantify, mostly under pKd 3.1 to 4
# Settings: plain residues with an end cap or a label only (N-terminal biotin on a linker: ado-ado)
row,Binder,pKd
1,B1,3.49
2,B2,below the threshold
3,B3,below the threshold
4,B4,below the threshold

# Target: IL16_1, Q14005
# Sequence (Q14005 210-306): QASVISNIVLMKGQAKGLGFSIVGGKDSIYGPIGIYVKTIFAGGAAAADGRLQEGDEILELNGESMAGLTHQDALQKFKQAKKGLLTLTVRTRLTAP
# Assay: holdup assay
# Set-up: key: below the threshold = too weak to quantify, mostly under pKd 3.1 to 4
# Settings: plain residues with an end cap or a label only (N-terminal biotin on a linker: ado-ado)
row,Binder,pKd
1,B1,3.67
2,B2,below the threshold
3,B3,below the threshold
4,B4,below the threshold

# Target: T8, LIN7B, Q9HAP6
# Assay: holdup assay
# Set-up: key: below the threshold = too weak to quantify, mostly under pKd 3.1 to 4
# Settings: plain residues with an end cap or a label only (N-terminal biotin on a linker: ado-ado)
row,Binder,pKd
1,B1,3.97
2,B2,below the threshold
3,B3,3.86
4,B4,below the threshold

# Target: Inadl_4, Q8NI35
# Sequence (Q8NI35 547-651): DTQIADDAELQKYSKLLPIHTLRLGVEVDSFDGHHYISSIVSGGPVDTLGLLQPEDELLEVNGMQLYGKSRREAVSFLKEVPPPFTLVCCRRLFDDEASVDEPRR
# Assay: holdup assay
# Set-up: key: below the threshold = too weak to quantify, mostly under pKd 3.1 to 4
# Settings: plain residues with an end cap or a label only (N-terminal biotin on a linker: ado-ado)
row,Binder,pKd
1,B1,below the threshold
2,B2,below the threshold
3,B3,below the threshold
4,B4,below the threshold

# Target: DLG4_3, P78352
# Sequence (P78352 306-403): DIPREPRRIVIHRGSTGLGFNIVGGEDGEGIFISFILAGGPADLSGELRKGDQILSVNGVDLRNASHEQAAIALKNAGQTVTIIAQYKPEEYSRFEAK
# Assay: holdup assay
# Set-up: key: below the threshold = too weak to quantify, mostly under pKd 3.1 to 4
# Settings: plain residues with an end cap or a label only (N-terminal biotin on a linker: ado-ado)
row,Binder,pKd
1,B1,4.17
2,B2,below the threshold
3,B3,below the threshold
4,B4,below the threshold

# Target: T9, PCLO, Q9Y6V0
# Assay: holdup assay
# Set-up: key: below the threshold = too weak to quantify, mostly under pKd 3.1 to 4
# Settings: plain residues with an end cap or a label only (N-terminal biotin on a linker: ado-ado)
row,Binder,pKd
1,B1,below the threshold
2,B2,below the threshold
3,B3,below the threshold
4,B4,below the threshold

# Target: T10, MPP2, Q14168
# Assay: holdup assay
# Set-up: key: below the threshold = too weak to quantify, mostly under pKd 3.1 to 4
# Settings: plain residues with an end cap or a label only (N-terminal biotin on a linker: ado-ado)
row,Binder,pKd
1,B1,4.01
2,B2,below the threshold
3,B3,below the threshold
4,B4,below the threshold

# Target: Inadl_8, Q8NI35
# Sequence (Q8NI35 1425-1530): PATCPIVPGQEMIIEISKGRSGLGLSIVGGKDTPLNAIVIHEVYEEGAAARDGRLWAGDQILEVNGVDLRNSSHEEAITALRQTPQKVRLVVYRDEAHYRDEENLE
# Assay: holdup assay
# Set-up: key: below the threshold = too weak to quantify, mostly under pKd 3.1 to 4
# Settings: plain residues with an end cap or a label only (N-terminal biotin on a linker: ado-ado)
row,Binder,pKd
1,B1,4.52
2,B2,below the threshold
3,B3,3.66
4,B4,below the threshold

# Target: T11, FRMPD1, Q5SYB0
# Assay: holdup assay
# Set-up: key: below the threshold = too weak to quantify, mostly under pKd 3.1 to 4
# Settings: plain residues with an end cap or a label only (N-terminal biotin on a linker: ado-ado)
row,Binder,pKd
1,B1,below the threshold
2,B2,below the threshold
3,B3,below the threshold
4,B4,below the threshold
